Measured values as given in publication PMC10238739, “Interaction with single-stranded DNA-binding protein modulates Escherichia coli RadD DNA repair activities” (The Journal of Biological Chemistry, 2023).
Residue numbers refer to the chain shown, from its start. Names may count otherwise.

B1: Escherichia coli RadD, wild type (enzyme, E. coli)
chain: MIFTLRPYQQEAVDATLNHFRRHKTPAVIVLPTGAGKSLVIAELARLARGRVLVLAHVKELVAQNHAKYQALGLEADIFAAGLKRKESHGKVVFGSVQSVARNLDAFQGEFSLLIVDECHRIGDDEESQYQQILTHLTKVNPHLRLLGLTATPFRLGKGWIYQFHYHGMVRGDEKALFRDCIYELPLRYMIKHGYLTPPERLDMPVVQYDFSRLQAQSNGLFSEADLNRELKKQQRITPHIISQIMEFAATRKGVMIFAATVEHAKEIVGLLPAEDAALITGDTPGAERDVLIENFKAQRFRYLVNVAVLTTGFDAPHVDLIAILRPTESVSLYQQIVGRGLRLAPGKTDCLILDYAGNPHDLYAPEVGTPKGKSDNVPVQVFCPACGFANTFWGKTTADGTLIEHFGRRCQGWFEDDDGHREQCDFRFRFKNCPQCNAENDIAARRCRECDTVLVDPDDMLKAALRLKDALVLRCSGMSLQHGHDEKGEWLKITYYDEDGADVSERFRLQTPAQRTAFEQLFIRPHTRTPGIPLRWITAADILAQQALLRHPDFVVARMKGQYWQVREKVFDYEGRFRLAHELRG
B2: RadD R145E (enzyme)
chain: B1 chain with R145E
B3: RadD R21E (enzyme)
chain: B1 chain with R21E
B4: RadD R49E (enzyme)
chain: B1 chain with R49E
B5: RadD (Escherichia coli K-12; R21E) (protein)
chain: B1 chain with R21E
notes: full-length, untagged; expressed from plasmid pEAW724 in E. coli STL2669/pT7pol26; conventional chromatography
B6: RadD (Escherichia coli K-12; R145E) (protein)
chain: B1 chain with R145E
notes: as for B5
B7: RadD (Escherichia coli K-12; R49E) (protein)
chain: B1 chain with R49E
notes: as for B5
B8: RadD (Escherichia coli K-12) (protein)
chain: B1 chain
notes: as for B5

Biological target: FAM labeled SSB C-terminal peptide … (E. coli)
Test: fluorescence polarisation; fluorescence anisotropy; 10 nM 5-FAM SSB C-terminal peptide, RadD or variant titrated up to 30 μM; 25 mM Tris-acetate pH 7.5, 200 mM potassium glutamate, 10 mM magnesium acetate, 1 mM DTT, 0.1 μg/ml BSA; 15 min at room temperature; apparent KD, one-site fit
Conditions: not given

Row | Binder | Kd [µM]
1 | B1 | 5.4
2 | B2 | > 30
3 | B3 | > 30
4 | B4 | > 30

Substrate: Nc1ncnc2c1ncn2[C@@H]1O[C@H](COP(=O)(O)OP(=O)(O)OP(=O)(O)O)[C@@H](O)[C@H]1O
Test: coupled spectrophotometric ATPase assay (NADH oxidation)
Format: biochemical, Escherichia coli
Conditions: no SSB, no DNA, 200 nM RadD, 10 mM Mg acetate, 200 mM K glutamate, pH 7.5, 37 °C
Description: coupled spectrophotometric ATPase assay (NADH oxidation) on RadD

Row | Binder | Km [µM] | Vmax [µM/min]
5 | B5 | 654 ± 52 | 42.3
6 | B6 | 698 ± 75 | 28.4
7 | B7 | 464 ± 44 | 51
8 | B8 | 640 ± 76 | 29.4

Biological target: Escherichia coli single-stranded DNA-binding protein (SSB), full-length (E. coli, UniProt P0AGE0 1-178)
Sequence (P0AGE0 whole entry): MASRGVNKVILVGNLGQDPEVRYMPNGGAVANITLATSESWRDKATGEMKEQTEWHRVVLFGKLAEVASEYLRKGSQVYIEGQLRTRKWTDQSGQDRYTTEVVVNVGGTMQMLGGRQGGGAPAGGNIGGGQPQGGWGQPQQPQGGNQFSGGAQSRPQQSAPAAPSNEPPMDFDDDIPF
Test: cell-based or functional assay
Conditions: not given

Row | Binder | ATPase rate of 200 nM RadD on titration of SSB from 0 to 40 μM [fold]
9 | B1 | ~3
